From the supplement of paper PMC11246515 come the findings set out here.

± gives the standard deviation of the averaged measurements.

The nature of the series: total protein half-life in vivo (active degradation + dilution); higher = more stable protein.
[1] abbreviates: E. coli NCM3722 delta-clpP delta-lon delta-hslV, growth: N-lim chemostat, doubling time 6 h.
The mark [2] stands for this setting: E. coli NCM3722 delta-clpP, growth: N-lim chemostat, doubling time 6 h.
[3] abbreviates: E. coli NCM3722 delta-hslV, growth: N-lim chemostat, doubling time 6 h.
Where [4] appears, read: E. coli NCM3722 delta-lon, growth: N-lim chemostat, doubling time 6 h.
Setting [5] is: E. coli NCM3722 delta-smpB, growth: N-lim chemostat, doubling time 6 h.
The mark [6] stands for this setting: wild type E. coli NCM3722, growth: C-lim chemostat, doubling time 3 h.
The mark [7] stands for this setting: wild type E. coli NCM3722, growth: C-lim chemostat, doubling time 6 h.
The mark [8] stands for this setting: wild type E. coli NCM3722, growth: C-lim chemostat, doubling time 12 h.
Setting [9] is: wild type E. coli NCM3722, growth: N-lim chemostat, doubling time 6 h.
Setting [10] is: wild type E. coli NCM3722, growth: N-lim chemostat, doubling time 12 h.
The mark [11] stands for this setting: wild type E. coli NCM3722, growth: P-lim chemostat, doubling time 6 h.
The mark [12] stands for this setting: wild type E. coli NCM3722, growth: P-lim chemostat, doubling time 12 h.

“MGLFNFVKDAGEKLWDAVTGQHDKDDQAKKVQEHLNKTGIPDADKVNIQIADGKATVTGDGLSQEAKEKILVAVGNISGIASVDDQVKTATPATASQFYTVKSGDTLSAISKQVYGNANLYNKIFEANKPMLKSPDKIYPGQVLRIPEE [P0ADE6]”: the “total protein half-life in vivo” value by setting is: under setting [1], 6.19 ± 0.023 h; under setting [2], 5.8 ± 0.83 h; under setting [3], 5.979 ± 0.053 h; under setting [4], 6.34 ± 0.072 h; under setting [5], 5.3 ± 0.33 h; under setting [6], 3.18 ± 0.085 h. The “total protein half-life in vivo” value under setting [7] is 5.55 ± 0.29 h; the “total protein half-life in vivo” value under setting [8] was found to be 9.85 ± 1.1 h; the “total protein half-life in vivo” value under setting [9] was determined as 4.67 ± 0.066 h; the “total protein half-life in vivo” value under setting [10] was 9.41 ± 1.2 h; the “total protein half-life in vivo” value under setting [11] was 5.21 ± 0.41 h; the “total protein half-life in vivo” value under setting [12] is 11.7 ± 0.15 h.
For the sequence “MKVDIDTSDKLYADAWLGFKGTDWKNEINVRDFIQHNYTPYEGDESFLAEATPATTELWEKVMEGIRIENATHAPVDFDTNIATTITAHDAGYINQPLEKIVGLQTDAPLKRALHPFGGINMIKSSFHAYGREMDSEFEYLFTDLRKTHNQGVFDVYSPDMLRCRKSGVLTGLPDGYGRGRIIGDYRRVALYGISYLVRERELQFADLQSRLEKGEDLEATIRLREELAEHRHALLQIQEMAAKYGFDISRPAQNAQEAVQWLYFAYLAAVKSQNGGAMSLGRTASFLDIYIERDFKAGVLNEQQAQELIDHFIMKIRMVRFLRTPEFDSLFSGDPIWATEVIGGMGLDGRTLVTKNSFRYLHTLHTMGPAPEPNLTILWSEELPIAFKKYAAQVSIVTSSLQYENDDLMRTDFNSDDYAIACCVSPMVIGKQMQFFGARANLAKTLLYAINGGVDEKLKIQVGPKTAPLMDDVLDYDKVMDSLDHFMDWLAVQYISALNIIHYMHDKYSYEASLMALHDRDVYRTMACGIAGLSVATDSLSAIKYARVKPIRDENGLAVDFEIDGEYPQYGNNDERVDSIACDLVERFMKKIKALPTYRNAVPTQSILTITSNVVYGQKTGNTPDGRRAGTPFAPGANPMHGRDRKGAVASLTSVAKLPFTYAKDGISYTFSIVPAALGKEDPVRKTNLVGLLDGYFHHEADVEGGQHLNVNVMNREMLLDAIEHPEKYPNLTIRVSGYAVRFNALTREQQQDVISRTFTQAL”, the “total protein half-life in vivo” value under setting [1] was 4.15 h; the “total protein half-life in vivo” value under setting [5] is 1.87 ± 0.4 h; the “total protein half-life in vivo” value under setting [6] was 2.12 ± 0.2 h; the “total protein half-life in vivo” value under setting [7] was found to be 2.56 ± 0.43 h; the “total protein half-life in vivo” value under setting [8] stood at 3.63 ± 1.1 h; the “total protein half-life in vivo” value under setting [9] came to 1.88 h. Also, the “total protein half-life in vivo” value under setting [10] was found to be 3.13 h, the “total protein half-life in vivo” value under setting [11] was 3.24 h and the “total protein half-life in vivo” value under setting [12] is 6.82 ± 0.17 h.
Consider “MKSLSYKRIYKSQEYLATLGTIEYRSLFGSYSLTVDDTVFAMVSDGELYLRACEQSAQYCVKHPPVWLTYKKCGRSVTLNYYRVDESLWRNQLKLVRLSKYSLDAALKEKSTRNTRERLKDLPNMSFHLEAILGEVGIKDVRALRILGAKMCWLRLRQQNSLVTEKILFMLEGAIIGIHEAALPVARRQELAEWADSLTPKQEFPAELE”, for which the “total protein half-life in vivo” value reads like this: under setting [1], 5.96 h; under setting [6], 2.28 h; under setting [7], 4.19 h; under setting [8], 9.22 h; under setting [11], 3.79 ± 0.53 h.
With “MKTETPSVKIVAITADEAGQRIDNFLRTQLKGVPKSMIYRILRKGEVRVNKKRIKPEYKLEAGDEVRIPPVRVAEREEEAVSPHLQKVAALADVILYEDDHILVLNKPSGTAVHGGSGLSFGVIEGLRALRPEARFLELVHRLDRDTSGVLLVAKKRSALRSLHEQLREKGMQKDYLALVRGQWQSHVKSVQAPLLKNILQSGERIVRVSQEGKPSETRFKVEERYAFATLVRCSPVTGRTHQIRVHTQYAGHPIAFDDRYGDREFDRQLTEAGTGLNRLFLHAAALKFTHPGTGEVMRIEAPMDEGLKRCLQKLRNAR [P0AA39]”, the “total protein half-life in vivo” value worked out at 5.63 ± 0.067 h under setting [1]; 5.2 ± 0.19 h under setting [2]; 5.84 ± 1 h under setting [3]; 5.68 ± 0.26 h under setting [4]; 5.43 ± 0.88 h under setting [5]; 3.01 ± 0.092 h under setting [6]. Also, the “total protein half-life in vivo” value stood at 5.78 ± 0.14 h under setting [7]; 9.77 ± 0.8 h under setting [8]; 5.21 ± 0.31 h under setting [9]; 9.13 ± 0.59 h under setting [10]; 5.56 ± 0.089 h under setting [11]; 11.6 ± 0.92 h under setting [12].
Turning to “MTQGAVKTTGKRSRAVSAKKKAILSAALDTFSQFGFHGTRLEQIAELAGVSKTNLLYYFPSKEALYIAVLRQILDIWLAPLKAFREDFAPLAAIKEYIRLKLEVSRDYPQASRLFCMEMLAGAPLLMDELTGDLKALIDEKSALIAGWVKSGKLAPIDPQHLIFMIWASTQHYADFAPQVEAVTGATLRDEVFFNQTVENVQRIIIEGIRPR [P0ACU2]”, the “total protein half-life in vivo” value was found to be 6.17 ± 0.95 h under setting [1]; 5.74 ± 0.36 h under setting [2]; 5.5 ± 0.84 h under setting [4]; 4.92 ± 0.71 h under setting [5]; 2.31 ± 0.54 h under setting [6]; 5.35 h under setting [7]. The “total protein half-life in vivo” value runs as follows: under setting [8], 12.1 ± 1.9 h; under setting [9], 5.39 ± 0.83 h; under setting [10], 10.8 ± 1.4 h; under setting [11], 4.61 ± 0.38 h; under setting [12], 9.98 ± 0.25 h.
For “MHNDKDLSTWQTFRRLWPTIAPFKAGLIVAGVALILNAASDTFMLSLLKPLLDDGFGKTDRSVLVWMPLVVIGLMILRGITSYVSSYCISWVSGKVVMTMRRRLFGHMMGMPVSFFDKQSTGTLLSRITYDSEQVASSSSGALITVVREGASIIGLFIMMFYYSWQLSIILIVLAPIVSIAIRVVSKRFRNISKNMQNTMGQVTTSAEQMLKGHKEVLIFGGQEVETKRFDKVSNRMRLQGMKMVSASSISDPIIQLIASLALAFVLYAASFPSVMDSLTAGTITVVFSSMIALMRPLKSLTNVNAQFQRGMAACQTLFTILDSEQEKDEGKRVIERATGDVEFRNVTFTYPGRDVPALRNINLKIPAGKTVALVGRSGSGKSTIASLITRFYDIDEGEILMDGHDLREYTLASLRNQVALVSQNVHLFNDTVANNIAYARTEQYSREQIEEAARMAYAMDFINKMDNGLDTVIGENGVLLSGGQRQRIAIARALLRDSPILILDEATSALDTESERAIQAALDELQKNRTSLVIAHRLSTIEKADEIVVVEDGVIVERGTHNDLLEHRGVYAQLHKMQFGQ”, the “total protein half-life in vivo” value runs as follows: under setting [1], 5.89 ± 0.51 h; under setting [2], 5.99 ± 0.27 h; under setting [3], 6.35 ± 0.47 h; under setting [4], 6.51 ± 0.63 h; under setting [5], 6.04 ± 0.25 h; under setting [6], 3.38 ± 0.053 h. For the same sequence, the “total protein half-life in vivo” value under setting [7] came to 5.63 ± 0.13 h; the “total protein half-life in vivo” value under setting [8] came to 11.4 ± 3 h; the “total protein half-life in vivo” value under setting [9] worked out at 6.15 ± 0.19 h; the “total protein half-life in vivo” value under setting [11] turned out to be 5.9 ± 0.39 h; the “total protein half-life in vivo” value under setting [12] is 11.3 ± 0.23 h.
Take “MNRFSKTQIYLHWITLLFVAITYAAMELRGWFPKGSSTYLLMRETHYNAGIFVWVLMFSRLIIKHRYSDPSIVPPPPAWQMKAASLMHIMLYITFLALPLLGIALMAYSGKSWSFLGFNVSPFVTPNSEIKALIKNIHETWANIGYFLIAAHAGAALFHHYIQKDNTLLRMMPRRK”: the “total protein half-life in vivo” value under setting [5] was 5.19 h, the “total protein half-life in vivo” value under setting [6] is 3.2 h and the “total protein half-life in vivo” value under setting [12] is above 16 h.
